# According to the nanobody polyreactivity screen of Harvey et al. (2022):
# Test: yeast display, Sf9 membrane polyspecificity reagent, FACS + sequencing; frameworks hold sequencing errors
# Procedure, shortened: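 In a synthetic yeast display library (Saccharomyces cerevisiae BJ5465), nanobody expression was induced with galactose for 36–48 hours. FACS gates were set low and high (top ~1%) using anti-HA fluorescence for expression and streptavidin fluorescence for binding of the Sf9 membrane reagent. Each polyreactivity label is drawn from the gate of origin.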
row,Sequence,polyreactivity (PSR sort gate)
1,QVQLVESGGGLVQAGGSLRLSCAASGSIFYENDMGWYRQAPGKERELVAAISSGGTTNYADSVKGRFTISRDNAKNTVYLQMNSLKPEDTAVYYCAAEYPSVYYERFDYWGQGTQVTVSS,low polyreactivity
2,QVQLVESGGGLVHAGGSLRLSCAASGSTFYSNVMGWYRQAPGKERELVAAISRSGGSTYYADSVKGRFTISRDNAKNTVYLQMNSLKAEDTAVYYCNRLRAPVRGDYWGQGTQVTVSS,high polyreactivity
3,QVQLVESGGGLVQAGGSLRLSCAASGSIFDIYAMGWYRPAPGKERELVAAISLSAGSTYYADSVKGRFTISRDNAKNTVYLQMNSLKPEDTAVYYCNADGWYGYWGQGTQVTVSS,low polyreactivity
4,QVQLVESGGGLVQAGGSLRLSCAASGRIFPRNAMGWYRQAPGKERELVAAISSGGGSTYYADSVKGRFTISRDNAKNTVYLQMNSLKPEDTAVYYCAKRAGWAGWYYRNDYWGQGTQVTVSS,high polyreactivity
5,QVQLQESVGGLVHAGGSLRLSCAASGSISAVGAMGWYRQAPGKEREFAASVNWGTNTNYADSVKGRFTISRDNAKNTLYLQMNSLKPEDTAVYYCAVLPDWETRHDYWGHGTQVTVSS,low polyreactivity
6,QVQLVESGGGLVQAGGSLRLSFAASGSIFYRNAMGWYRQAPGKERELVASISASGGRTYYADSVKGRFTISRDNGKNTVYLQMNSVKPEDTAFYYCNKVSPVAYWYSWGINFDYWGQGTQVTVSS,high polyreactivity
7,QVQLLESGGGLVQAGGSLRLSCAASGTSAQEDWMGWYRQAPGKEREFVAAIGLGSHTNYADSLKGRFTISRDNAKNTVYLHMNSLKPEDTAVYYCAVSVWQYSDHVYRGQGTQVTVSS,low polyreactivity
8,QVQLVESGGGLVQAGGSLRLSCAASGGIFLPNAMGWYRQAPGKERELVAAISTGGSTNYADSVKGRFTISRDNAKNTVYLQMNSLKPEDTAVYYCAATPYNYVGFSRGGDYWGQGTQVTVSS,low polyreactivity
9,QVQLVESGGGLVQAGGSLRLSCAASGIIFTYNAMGWSRQAPGKERELVAAINSSGGSTNYADSVKGRFTISRDNAKNTVYLQMNSLKPEDTAVYYCAARDATYYGVWRYYGIDDYWGQGTQVTVSS,low polyreactivity
10,QVHLVDSGGGLVQAGGSLRLSCAASGFTFWRYTMGWYRQAPGKERELVAAISGGTTTYYADSVKGRFTISRDNAKNTVYLQMNSLKPEDTAVYYCAAYSQRARTYDYWGQGTQVTVSS,high polyreactivity
11,QVQLVESGGGLVQAGGSLRLSCAASGSTFRRNAMGWYRQAPGKERELVAAIDKSGGTTYYADSVKGRFTISRDNAKNTVYLQMNSLKPEDTAVYYCAVRSYLSSRGSHDYWGQGTQVTVSS,low polyreactivity
12,QVQLVESGGGLVQAGGSLRLSCAASGRTFKPYGMGWYRQAPGKERELVAAISSRGDITYYADSVKGRFTISRDNAKNTVYLQMNSLKPEDTAVYYCNADLYRKRAWVRRDGSWGQGTQVTVSS,low polyreactivity
13,QVQLVESGGGLVQAGGSLRLSCAASGSTFAFNAMGWYRQAPGKEREFVARITWTYGSTYYADSVKGRFTISRDNAKNTVYLQMNSLKPEDTAVYYCARDPTEQAIARWTYDYWGQGTQVTVSS,low polyreactivity
14,QVQLVESGGGLVQAGGSLRLSCAASGLISGDYAMGWYRQAPGKERELVARITSGDSTNYADSVKGRFTISRDNAKNTVYLQMNSLKPEDTAVYYCAAKRYVFQNDYWGQGTQVTVSS,low polyreactivity
15,QVQLVESGGGLVQAGGSLRLSCAASGGIFYSYAMGWYRQAPGKERELVAAISGRGGSTYYADSVKGRFTISRDNAKNSVNLQMNSLKPEDTAVYYCNALGSQRYDYWGQGTQVTVSS,high polyreactivity
16,QVQLVESGGCLVQAGGSLRLSCAASGLTFPKYSMGWYRQAPGKERELVARISYSGASTYYADSVKGRFTISRDNEKNTVYLHMIILKPEDTAVYYCDARIYRVYYVNFAPYYYWGQGTQVTVSS,high polyreactivity

row,Sequence,polyreactivity (PSR sort gate)
1,QVQLVESGGGLVQAGGSLRLSCAASGSTFYYYAMGCYRQAPGKERELVAAINSSGGNTYYADSVKGRFTISRDNAKNTVYLQMNCLKPEDTAVYYCATEYYWLQDYDYWGQGTQVTVSS,low polyreactivity
2,QVQLVESGGGLVQAGGSLRLSSAASGIIFSTYAMGWYRQAPGKERELVAAITSTGSTNYADSVKGRFTISRDNAKNTVYFQMNSLKPEDTAVYYCNAALNVSGHYPNDYWGQGTQVTVSS,low polyreactivity
3,QVQLVETGGGLVQAGGSLRLSCAASGNTFAGNAMGWYRQAPGKERELVAAISRSGVTTRYADSVKGRFTISRDNATNTVYLQMNSLKPEDTAVYYCNADPRLRQNRDYWGQGTQVTVSS,high polyreactivity
4,QVQLVESGGGLVQAGGSLRLSCAASGLTFGTYAMGWYRPAPGKERELVAAIRSGGSTNYADSVKGRFTISRDNAKNTVYLQMNSLKPEDTAVYYCAKRYYWDRYYYWGQGTQVTVSS,high polyreactivity
5,QVQLVESAGGLVQAGGSLRLSCAASGSTFAIKAMGWYRQAPGKERELVAAISSSGSTNYADSVKGRFTISRDNAKNTVYLQMNSLKQEDTAVYYCAADRVWGTPQAYVPSHFDYWGQGTQVTVSS,low polyreactivity
6,QDQLVESGGGLVQAGGSLRLSCAASGSMFDYYAMGWYRQAPGKERELVAAISGSGSRTYYADSVKGRFTISRVTAKNTVYIQMNRLKPEDTAFYYCAAESVVYDIVGYEYWYDYYWGLGTQVTVSS,high polyreactivity
7,QVQLVESGGGLVQAGGSHRLSCAASGLIFYYYAMGWYRQAPGKERELVAAITWTAGSTSYADSVKGRFTISRDNAKNTVYLQMNSLKPEDTAVYYCAADYRHDTFSNEYDYWGQGTQVTVSS,low polyreactivity
8,QVQLVESGGGLVQAGGSLRLSCAASGFTFAKYAMGWYRQAPGKERELVAAITNSGCRTYYEDSVKGRFTISRDNAKNTVYLQMNSPKPEDTAVYYCATEQLGGSIYDYWGQGTQVTVSS,high polyreactivity
9,QVQLVESGGGLVQAGGSLRLSCAASGYTFDINAMGWYRQAPGKERELVADISANDGSTSYADSVKGRFTISRDNAKNTVYLQMNSLKPEDTAVYYCAADYIWNPTWSVGYGDPGYDYCGQGTQVTVSS,low polyreactivity
10,QVQLVESGGGLVQAGGSLRLSCAASGRTFYSYAMGWYRQAPGKERELVATIRRGGRTNYADSVKGRFTISRDNAKNTVYLQMNSLKPEDTAVYYCAAEDYLSWVTSTYDYWGQGTQVAVSS,low polyreactivity
11,QVQLVESGGGLVQAGGSLRLSCAASGSIFAGNVMGWYRQAPGKESELVAAISRRGGRTYYADSVKGRFTISRDNAKNTVYLQMNSLKPEDTAVYYCAARRDPVLGKSDYWGQGTQVTVSS,high polyreactivity
12,QVQLVESGGGLVQAGGSLRLSCAASGSTLYWYAMGWYRQAPGKERELVAAITSGGNTYYADSVKGRFTISRDNAKNTVYLQMNSLKPEDTAVSYCAVGSFGVSAYSYYYWGQGTQVTVSS,low polyreactivity
13,QVQLVESGGGLVQAGGSLRLSCAASGLIFYRYAMGWYRQAPAKERELVADITRDSGSTSYADSVKGRFTISRDYAKNTVYLQMNSLKPEDTAVYYCNAGWVYTASGRQYYITYDYWGQGTQVTVSS,high polyreactivity
14,QVQLVESGGGLVQAGGSLRLSCAASGRTFDGYSMGWYRQAPGKEREFVASINGGGSTNYADSVNGRFTISRDNAKNTVYLQMNSLKPEDTAVYYCAAESKGTWLYLYNSPHYYWGQGTQVTVSS,low polyreactivity
15,QVQLVESGGGLVQAGGSLRLSCAAYGFTIYYYTMGWYRQAPGKERELFAAISHSGSSTYYADSVKGRFTISRDNAKKTVNLQMNSLKPEDTAVYYCAASRSKNSALGGRVSIGDYWGQGTQVTVSS,high polyreactivity
